± gives the uncertainty stated by the source.

The series can be described thus: abundance fitness (aPCA) (normalised: wild type 0, dead -1); higher = more abundant; growth selection in yeast, the domain comes from the species named. Particulars: Homo sapiens.
As for “SAFB-like transcription modulator I22F, Q9NWH9”, the abundance fitness is -0.372 ± 0.087.

Take “SAFB-like transcription modulator I22G, Q9NWH9”: the abundance fitness is -0.562 ± 0.044.

With “SAFB-like transcription modulator I22H, Q9NWH9”, the abundance fitness is -0.471 ± 0.12. “SAFB-like transcription modulator I22K, Q9NWH9”: the abundance fitness is -0.576 ± 0.072. With “SAFB-like transcription modulator I22L, Q9NWH9”, the abundance fitness was -0.115 ± 0.061. For “SAFB-like transcription modulator I22N, Q9NWH9”, the abundance fitness was -0.659 ± 0.11. The result for “SAFB-like transcription modulator I22P, Q9NWH9” reads -0.736 ± 0.089; that for “SAFB-like transcription modulator I22Q, Q9NWH9”, -0.606 ± 0.093; that for “SAFB-like transcription modulator I22R, Q9NWH9”, -0.743 ± 0.048. With “SAFB-like transcription modulator I22S, Q9NWH9”, the abundance fitness was -0.521 ± 0.065.

For “SAFB-like transcription modulator I22T, Q9NWH9”, the abundance fitness was -0.542 ± 0.1. As to “SAFB-like transcription modulator I22V, Q9NWH9”, the abundance fitness is -0.132 ± 0.037.

On to “SAFB-like transcription modulator I22W, Q9NWH9”, for which the abundance fitness was -0.94 ± 0.085. Consider “SAFB-like transcription modulator I22Y, Q9NWH9”, for which the abundance fitness was -0.531 ± 0.085.

Take “SAFB-like transcription modulator I28A, Q9NWH9”: the abundance fitness was found to be 0.055 ± 0.1.

For “SAFB-like transcription modulator I28E, Q9NWH9”, the abundance fitness was -0.1 ± 0.11. For the substance “SAFB-like transcription modulator I28F, Q9NWH9”, the abundance fitness was -0.417 ± 0.17. For the substance “SAFB-like transcription modulator I28G, Q9NWH9”, the abundance fitness was -0.106 ± 0.064.

As to “SAFB-like transcription modulator I28K, Q9NWH9”, the abundance fitness was -0.22 ± 0.22. With “SAFB-like transcription modulator I28N, Q9NWH9”, the abundance fitness was -0.59 ± 0.23. The substance “SAFB-like transcription modulator I28P, Q9NWH9” displayed an abundance fitness of 0.193 ± 0.13. With “SAFB-like transcription modulator I28Q, Q9NWH9”, the abundance fitness was -0.36 ± 0.13. The result for “SAFB-like transcription modulator I28R, Q9NWH9” reads -0.018 ± 0.057; that for “SAFB-like transcription modulator I28S, Q9NWH9”, -0.411 ± 0.12; that for “SAFB-like transcription modulator I28T, Q9NWH9”, -0.129 ± 0.12. “SAFB-like transcription modulator I28V, Q9NWH9” yielded an abundance fitness of 0.01 ± 0.069.

With “SAFB-like transcription modulator I28W, Q9NWH9”, the abundance fitness is -0.365 ± 0.11. “SAFB-like transcription modulator I28Y, Q9NWH9”: the abundance fitness was -0.306 ± 0.15. “SAFB-like transcription modulator I41A, Q9NWH9” had an abundance fitness of 0.075 ± 0.075.

In the case of “SAFB-like transcription modulator I41C, Q9NWH9”, the abundance fitness was -0.08 ± 0.15. The result for “SAFB-like transcription modulator I41D, Q9NWH9” reads -0.457 ± 0.11; that for “SAFB-like transcription modulator I41E, Q9NWH9”, -0.139 ± 0.083; that for “SAFB-like transcription modulator I41F, Q9NWH9”, 0.197 ± 0.079.

Consider “SAFB-like transcription modulator I41G, Q9NWH9”, for which the abundance fitness was -0.158 ± 0.064. The result for “SAFB-like transcription modulator I41H, Q9NWH9” reads 0.157 ± 0.093; that for “SAFB-like transcription modulator I41K, Q9NWH9”, -0.336 ± 0.11; that for “SAFB-like transcription modulator I41L, Q9NWH9”, -0.087 ± 0.065. Substance “SAFB-like transcription modulator I41M, Q9NWH9” displayed an abundance fitness of 0.08 ± 0.075. Take “SAFB-like transcription modulator I41N, Q9NWH9”: the abundance fitness was -0.68 ± 0.2. Turning to “SAFB-like transcription modulator I41Q, Q9NWH9”, the abundance fitness was -0.022 ± 0.082. As for “SAFB-like transcription modulator I41R, Q9NWH9”, the abundance fitness was -0.202 ± 0.066. On to “SAFB-like transcription modulator I41S, Q9NWH9”, for which the abundance fitness was -0.01 ± 0.042.

Turning to “SAFB-like transcription modulator I41T, Q9NWH9”, the abundance fitness is -0.337 ± 0.079. Turning to “SAFB-like transcription modulator I41V, Q9NWH9”, the abundance fitness was -0.067 ± 0.063. With “SAFB-like transcription modulator I41W, Q9NWH9”, the abundance fitness is -0.195 ± 0.092. Consider “SAFB-like transcription modulator I41Y, Q9NWH9”, for which the abundance fitness was -0.172 ± 0.11. The substance “SAFB-like transcription modulator I49A, Q9NWH9” had an abundance fitness of 0 ± 0.063.

On to “SAFB-like transcription modulator I49C, Q9NWH9”, for which the abundance fitness was -0.138 ± 0.056. Turning to “SAFB-like transcription modulator I49D, Q9NWH9”, the abundance fitness was -0.154 ± 0.11. On to “SAFB-like transcription modulator I49E, Q9NWH9”, for which the abundance fitness was -0.056 ± 0.071. Turning to “SAFB-like transcription modulator I49G, Q9NWH9”, the abundance fitness was -0.406 ± 0.049. The result for “SAFB-like transcription modulator I49H, Q9NWH9” reads -0.29 ± 0.1; that for “SAFB-like transcription modulator I49K, Q9NWH9”, -0.401 ± 0.078; that for “SAFB-like transcription modulator I49L, Q9NWH9”, -0.075 ± 0.045.

Consider “SAFB-like transcription modulator I49M, Q9NWH9”, for which the abundance fitness was 0.03 ± 0.057.

Turning to “SAFB-like transcription modulator I49N, Q9NWH9”, the abundance fitness is -0.518 ± 0.073. As for “SAFB-like transcription modulator I49P, Q9NWH9”, the abundance fitness was -0.739 ± 0.067.

For the substance “SAFB-like transcription modulator I49Q, Q9NWH9”, the abundance fitness was -0.068 ± 0.05.

As for “SAFB-like transcription modulator I49R, Q9NWH9”, the abundance fitness is -0.148 ± 0.054. As for “SAFB-like transcription modulator I49S, Q9NWH9”, the abundance fitness is -0.168 ± 0.05. For the substance “SAFB-like transcription modulator I49T, Q9NWH9”, the abundance fitness was -0.223 ± 0.072. “SAFB-like transcription modulator I49V, Q9NWH9”: the abundance fitness was -0.079 ± 0.048.

In the case of “SAFB-like transcription modulator I49W, Q9NWH9”, the abundance fitness was -0.449 ± 0.041.

Turning to “SAFB-like transcription modulator I49Y, Q9NWH9”, the abundance fitness is -0.076 ± 0.089.

As to “SAFB-like transcription modulator I56A, Q9NWH9”, the abundance fitness is -0.829 ± 0.1. Regarding “SAFB-like transcription modulator I56C, Q9NWH9”, the abundance fitness was -0.18 ± 0.083. For the substance “SAFB-like transcription modulator I56D, Q9NWH9”, the abundance fitness is -0.286 ± 0.3.

Take “SAFB-like transcription modulator I56E, Q9NWH9”: the abundance fitness is -0.597 ± 0.089. Consider “SAFB-like transcription modulator I56F, Q9NWH9”, for which the abundance fitness is -0.898 ± 0.21.

Consider “SAFB-like transcription modulator I56G, Q9NWH9”, for which the abundance fitness is -0.916 ± 0.072. Turning to “SAFB-like transcription modulator I56H, Q9NWH9”, the abundance fitness was -0.797 ± 0.19. “SAFB-like transcription modulator I56L, Q9NWH9” yielded an abundance fitness of 0.002 ± 0.068. The result for “SAFB-like transcription modulator I56M, Q9NWH9” reads -0.217 ± 0.05. In the case of “SAFB-like transcription modulator I56N, Q9NWH9”, the abundance fitness is -0.951 ± 0.25. As to “SAFB-like transcription modulator I56P, Q9NWH9”, the abundance fitness is -0.457 ± 0.05. The result for “SAFB-like transcription modulator I56R, Q9NWH9” reads -0.485 ± 0.07. Take “SAFB-like transcription modulator I56S, Q9NWH9”: the abundance fitness is -0.678 ± 0.082. The result for “SAFB-like transcription modulator I56W, Q9NWH9” reads -0.561 ± 0.069; that for “SAFB-like transcription modulator I56Y, Q9NWH9”, -0.419 ± 0.16; that for “SAFB-like transcription modulator I66A, Q9NWH9”, -0.552 ± 0.15. “SAFB-like transcription modulator I66C, Q9NWH9”: the abundance fitness is 0.196 ± 0.11. Turning to “SAFB-like transcription modulator I66E, Q9NWH9”, the abundance fitness was -0.272 ± 0.061.

On to “SAFB-like transcription modulator I66F, Q9NWH9”, for which the abundance fitness was -0.396 ± 0.15. “SAFB-like transcription modulator I66G, Q9NWH9”: the abundance fitness was -0.517 ± 0.085. “SAFB-like transcription modulator I66H, Q9NWH9”: the abundance fitness was -0.226 ± 0.12. On to “SAFB-like transcription modulator I66L, Q9NWH9”, for which the abundance fitness is -0.268 ± 0.094. With “SAFB-like transcription modulator I66M, Q9NWH9”, the abundance fitness was -0.316 ± 0.14. “SAFB-like transcription modulator I66N, Q9NWH9”: the abundance fitness was -0.432 ± 0.18. The result for “SAFB-like transcription modulator I66P, Q9NWH9” reads -0.274 ± 0.1. The result for “SAFB-like transcription modulator I66Q, Q9NWH9” reads -0.004 ± 0.11. “SAFB-like transcription modulator I66R, Q9NWH9”: the abundance fitness is -0.443 ± 0.061.

(Values after the Human Domainome abundance scans (Beltran et al. 2025).)
